Each block holds one sequence with its values, some of them ahead of it.
How the values were obtained:
CCR4 [1] = molecular target: T1, CCR4 (Homo sapiens, UniProt P51679); experiment: PathHunter eXpress CCR4 CHO-K1 β-Arrestin GPCR Assay, agonist format; format: cell-based
T1 construct: host or cells: CHO-K1
T1 sequence (P51679 1-360): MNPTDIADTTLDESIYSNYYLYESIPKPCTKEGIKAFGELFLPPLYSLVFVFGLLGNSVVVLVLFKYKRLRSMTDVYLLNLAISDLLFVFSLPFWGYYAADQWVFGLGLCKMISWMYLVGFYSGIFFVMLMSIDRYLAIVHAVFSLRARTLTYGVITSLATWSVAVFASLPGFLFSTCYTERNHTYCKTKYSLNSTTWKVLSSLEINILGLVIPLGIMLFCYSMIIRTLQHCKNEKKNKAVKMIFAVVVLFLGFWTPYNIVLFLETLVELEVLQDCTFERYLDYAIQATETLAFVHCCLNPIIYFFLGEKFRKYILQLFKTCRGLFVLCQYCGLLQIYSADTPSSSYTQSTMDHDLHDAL
Experimental: (§1) The aim of the present experiment was to analyze if if these peptides are functional using a Discoverx Assay, the Beta-Arrestin recruitment assay, to identify agonism or antagonism in the selected peptides.
(§2) Standard protocols used: • PathHunter® eXpress CCR4 CHO-K1 β-Arrestin GPCR Assay. 100 dp (1×96-well)
(§3) The experiment was carried using the manufacturer instructions.
The concentration was increased to test for response at high concentration.

CCR4 [2] = molecular target: T1, CCR4; experiment: PathHunter eXpress CCR4 CHO-K1 β-Arrestin GPCR Assay, antagonist format with CCL22; format: cell-based
Experimental: as §1, §2, §3
We therefore used the assay in an antagonist format, using 10 nM CCL22.
We repeated this experiment lowering the concentration of CCL22 from 10 nM to 1 nM to show a full inhibition curve.

- Raw Data (CCR4 [1]; 0.006 nM): 27634
- Raw Data (CCR4 [1]; 0.02 nM): 30705
- Raw Data (CCR4 [1]; 0.06 nM): 30335
- Raw Data (CCR4 [1]; 0.17 nM): 31512
- Raw Data (CCR4 [1]; 0.51 nM): 31217
- Raw Data (CCR4 [1]; 1.5 nM): 34513
- Raw Data (CCR4 [1]; 4.6 nM): 29431
- Raw Data (CCR4 [1]; 13.9 nM): 24436
- Raw Data (CCR4 [1]; 41.7 nM): 23071
- Raw Data (CCR4 [1]; 125 nM): 22524
- Raw Data (CCR4 [1]; 375 nM): 20081
- Raw Data (CCR4 [1]; high concentration, 0.001 uM): 11252
- Raw Data (CCR4 [1]; high concentration, 0.003 uM): 11640
- Raw Data (CCR4 [1]; high concentration, 0.008 uM): 12612
- Raw Data (CCR4 [1]; high concentration, 0.023 uM): 12684
- Raw Data (CCR4 [1]; high concentration, 0.1 uM): 13168
- Raw Data (CCR4 [1]; high concentration, 0.2 uM): 13560
- Raw Data (CCR4 [1]; high concentration, 0.6 uM): 12989
- Raw Data (CCR4 [1]; high concentration, 1.9 uM): 12391
- Raw Data (CCR4 [1]; high concentration, 5.6 uM): 12460
- Raw Data (CCR4 [1]; high concentration, 16.7 uM): 12506
- Raw Data (CCR4 [1]; high concentration, 50 uM): 11512
- Raw Data (CCR4 [2]; 1 nM CCL22, 0.001 uM): 229814
- Raw Data (CCR4 [2]; 1 nM CCL22, 0.003 uM): 230497
- Raw Data (CCR4 [2]; 1 nM CCL22, 0.008 uM): 210841
- Raw Data (CCR4 [2]; 1 nM CCL22, 0.023 uM): 219415
- Raw Data (CCR4 [2]; 1 nM CCL22, 0.1 uM): 218869
- Raw Data (CCR4 [2]; 1 nM CCL22, 0.2 uM): 228712
- Raw Data (CCR4 [2]; 1 nM CCL22, 0.6 uM): 229977
- Raw Data (CCR4 [2]; 1 nM CCL22, 1.9 uM): 190843
- Raw Data (CCR4 [2]; 1 nM CCL22, 5.6 uM): 200574
- Raw Data (CCR4 [2]; 1 nM CCL22, 16.7 uM): 156536
- Raw Data (CCR4 [2]; 1 nM CCL22, 50 uM): 114497
- Raw Data (CCR4 [2]; 10 nM CCL22, 0.001 uM): 195228
- Raw Data (CCR4 [2]; 10 nM CCL22, 0.003 uM): 200825
- Raw Data (CCR4 [2]; 10 nM CCL22, 0.008 uM): 201223
- Raw Data (CCR4 [2]; 10 nM CCL22, 0.023 uM): 183445
- Raw Data (CCR4 [2]; 10 nM CCL22, 0.1 uM): 170995
- Raw Data (CCR4 [2]; 10 nM CCL22, 0.2 uM): 195355
- Raw Data (CCR4 [2]; 10 nM CCL22, 0.6 uM): 181254
- Raw Data (CCR4 [2]; 10 nM CCL22, 1.9 uM): 194535
- Raw Data (CCR4 [2]; 10 nM CCL22, 5.6 uM): 180947
- Raw Data (CCR4 [2]; 10 nM CCL22, 16.7 uM): 179127
- Raw Data (CCR4 [2]; 10 nM CCL22, 50 uM): 133745
Sequence: ACPLMSSVNCTAGCA [24-13-00-N001, bicyclic peptide ligand, TBMB scaffold, from CCR4 cell-based selection]

- Raw Data (CCR4 [1]; 0.006 nM): 23153
- Raw Data (CCR4 [1]; 0.02 nM): 23757
- Raw Data (CCR4 [1]; 0.06 nM): 25748
- Raw Data (CCR4 [1]; 0.17 nM): 25062
- Raw Data (CCR4 [1]; 0.51 nM): 25030
- Raw Data (CCR4 [1]; 1.5 nM): 24736
- Raw Data (CCR4 [1]; 4.6 nM): 22899
- Raw Data (CCR4 [1]; 13.9 nM): 20756
- Raw Data (CCR4 [1]; 41.7 nM): 20583
- Raw Data (CCR4 [1]; 125 nM): 20012
- Raw Data (CCR4 [1]; 375 nM): 20361
- Raw Data (CCR4 [1]; high concentration, 0.001 uM): 10927
- Raw Data (CCR4 [1]; high concentration, 0.003 uM): 11906
- Raw Data (CCR4 [1]; high concentration, 0.008 uM): 12502
- Raw Data (CCR4 [1]; high concentration, 0.023 uM): 12701
- Raw Data (CCR4 [1]; high concentration, 0.1 uM): 13482
- Raw Data (CCR4 [1]; high concentration, 0.2 uM): 13403
- Raw Data (CCR4 [1]; high concentration, 0.6 uM): 14951
- Raw Data (CCR4 [1]; high concentration, 1.9 uM): 14247
- Raw Data (CCR4 [1]; high concentration, 5.6 uM): 14263
- Raw Data (CCR4 [1]; high concentration, 16.7 uM): 13237
- Raw Data (CCR4 [1]; high concentration, 50 uM): 13817
- Raw Data (CCR4 [2]; 1 nM CCL22, 0.001 uM): 244145
- Raw Data (CCR4 [2]; 1 nM CCL22, 0.003 uM): 250550
- Raw Data (CCR4 [2]; 1 nM CCL22, 0.008 uM): 249215
- Raw Data (CCR4 [2]; 1 nM CCL22, 0.023 uM): 247868
- Raw Data (CCR4 [2]; 1 nM CCL22, 0.1 uM): 246609
- Raw Data (CCR4 [2]; 1 nM CCL22, 0.2 uM): 225038
- Raw Data (CCR4 [2]; 1 nM CCL22, 0.6 uM): 213774
- Raw Data (CCR4 [2]; 1 nM CCL22, 1.9 uM): 213016
- Raw Data (CCR4 [2]; 1 nM CCL22, 5.6 uM): 186217
- Raw Data (CCR4 [2]; 1 nM CCL22, 16.7 uM): 150731
- Raw Data (CCR4 [2]; 1 nM CCL22, 50 uM): 107480
- Raw Data (CCR4 [2]; 10 nM CCL22, 0.001 uM): 155442
- Raw Data (CCR4 [2]; 10 nM CCL22, 0.003 uM): 169611
- Raw Data (CCR4 [2]; 10 nM CCL22, 0.008 uM): 142089
- Raw Data (CCR4 [2]; 10 nM CCL22, 0.023 uM): 158472
- Raw Data (CCR4 [2]; 10 nM CCL22, 0.1 uM): 157585
- Raw Data (CCR4 [2]; 10 nM CCL22, 0.2 uM): 159872
- Raw Data (CCR4 [2]; 10 nM CCL22, 0.6 uM): 147765
- Raw Data (CCR4 [2]; 10 nM CCL22, 1.9 uM): 143871
- Raw Data (CCR4 [2]; 10 nM CCL22, 5.6 uM): 140714
- Raw Data (CCR4 [2]; 10 nM CCL22, 16.7 uM): 167890
- Raw Data (CCR4 [2]; 10 nM CCL22, 50 uM): 138655
Sequence: ACQTLCNTAEDIRCA [24-16-00-N001, bicyclic peptide ligand, TBMB scaffold, from CCR4 cell-based selection]
